Tests used:
[1] = biological target: human IGF1R on cells (human) (UniProt P08069); assay: FACS on BT474 cells (FL1-H), anti-human FITC; MFI of 2nd Ab only 1.93, untreated 1.8
[2] = biological target: human IGF1R on cells (human) (UniProt P08069); assay: FACS on MCF-7 cells (FL1-H), anti-human FITC; MFI of 2nd Ab only 4.53, untreated 2.51
[3] = biological target: human IGF1R on cells (human) (UniProt P08069); assay: FACS on JIMT-1 cells (FL1-H), anti-human FITC; MFI of 2nd Ab only 1.89, untreated 1.36

Sequence of IMC-A12 (antibody) (VH): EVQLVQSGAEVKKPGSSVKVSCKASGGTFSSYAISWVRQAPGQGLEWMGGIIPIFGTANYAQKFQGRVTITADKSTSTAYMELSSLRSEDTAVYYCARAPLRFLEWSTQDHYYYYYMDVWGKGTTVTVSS
Sequence of IMC-A12 (antibody) (VL): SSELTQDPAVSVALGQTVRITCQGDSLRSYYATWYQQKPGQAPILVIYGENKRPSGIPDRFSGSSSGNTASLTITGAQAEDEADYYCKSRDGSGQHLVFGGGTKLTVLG

MFI [1]: 18.3
MFI [2]: 40.1
MFI [3]: 23
Substance: IMC-A12 (antibody)
